The values that follow come from the DeepSol protein solubility set.

The nature of the data set: soluble on expression in E. coli; label from the status in PepcDB or PDB records.
Regarding “MGSDKIHHHHHHNKIPTTMAFRTVTDVDNAVNGLYDLMSGSGYYGAAMFAYGDMKGDDMQSSEESGVCNTCYMFNHRPNSLNAGSLWGRPFYILREAWNILNAIAEGKIESGDEKKLNALKGETMAVIALCQFDLTRCFGYPYTKDKGASLGAPLIDHLVGTYENPPRSTVAQAYDFIIETLEEAVTLMSEEKNNGRMNKYAARALLARIYLYHDDNRKAFDLADQLIKDADTSGSYALYPHEKYVAAWSVEAKFGSESFFEIANSVDDTPGRDSWGYLLNWYGYQKGFVTQKYAEQMLADPGDVRGHLLEENKYAGKTVWWLYKLRGTDLKTAPLECNNVVLRLSEVYLIAAEAGCKLGGDAAVQGLGYLNEIVKRGNPDNEVTMADYTLDRVLDERSKELVGEGHRFFDLLRNGKTIVRKGGYHLPSVDEEVDWDFYKCVLPIPEDQFIFSPEMEQNPGYPKN”, the “soluble on expression in E. coli” value is given as “not soluble”. For “SHRKFVVQLFAEEWGQYVDLPKGFAVSERCKVRLVPLQIQLTTLGNLTPSSTVFFCCDMQERFRPAIKYFGDIISVGQRLLQGARILGIPVIVTEQYPKGLGSTVQEIDLTGVKLVLPKTKFSMVLPEVEAALAEIPGVRSVVLFGVETHVCIQQTALELVGRGVEVHIVADATSSRSMMDRMFALERLARTGIIVTTSEAVLLQLVADKDHPKFKEIQNLIKASAPESGLLSKV” the value was “soluble”; for “MGSDKIHHHHHHMLQFIPVFDGNTIAVRASGKLTLEDFQQFFPQLETQIKRLGKISLLFEFDNFSGWDLDAAIDDIKFGMKHLSDFERIAMVGDKSWEHWMALIAKPFLISSEVRYFNRENLQQAWDWLREKQEFEKAVEQLQPYQNIVVAVDFSLYSKHACKRAIELANYYQASLTLLNVVPEVLAYTLYGDPVGYNVVDLDIIKDQNKKNIDAAQFQMKAFVNDLDTNFPIETKVICGEINYGVVSFLEAQHIDLAIFGAKKKKGINKLLGSVPHYVQNHSRCEILIVPVQGPVF”, “not soluble”.

Regarding “MSLLEWDLSALFHDKEALQNFTQDQIQQSLNFKKNYENKLYTLNANEFLQALKDYENLNQALGKIMTYAYLLFAKNTQNGSFYAQYEEECKKIEENLLFFELEFCELAPEKSREFTTFCKDYDFYLSNLLQNKRYNLSKNEERIMLYLSNTGANAFSRLFDESMSALKIPFEGKKLSEEEILSKMYDENRKIRKKAAKKFSKVLQKNSRLLSFIINMIKTERKNISLLRGYENAEISRHISNQISQKSVDSLIASAQKHFNLVSQFYKRKKQILGYDELKDYDRYAPIGKEASFDFKTSKNIVLEAFQAFSPQFYDIAKNAFDQGWIDVYPQENKQGGAFSHSATSDAHPFVLLNHTNKRRDLFTLAHELGHTIHQKLSYNVSYLNQNTPLTTAETASVFAEMLVFDFIKDKLKKEELLSLYANKIEDIFATFYRQINFTCFERRLHAQENELSTEEINKIWMEESQKMFQDSVKLTKNYASWWSYIPHFIHSPFYCYAYAYAQLLVLALYGLYKSKKCENFKELYIKMLSLGGSVSPKELVGMFGFDIEDENFWEIGIKEIQKLINEFMELQSEGHHHHHH”, the “soluble on expression in E. coli” value is on record as “soluble”. For “MKVSKIYTTIDAHVAGEPLRIITGGVPEIKGETQLERRAYCMEHLDYLREILMYEPRGHHGMYGCIITPPASAHADFGVLFMHNEGWSTMCGHGIIAVITVGIETGMFEVTGEKQKFIIDSPAGEVIAYATYSGSEVESVSFENVPSFVYKKDVPIKIDSYEFQVDIAFGGAFYAVVDSKEFGLKVDFKDLSAIQMWGGKIKHYIESKMEVKHPLEEGLKGIYGVIFSDDPKEKDATLRNVTIFADGQVDRSPCGTGTSARIATLFAKDALQKGEIFVHECITDGKFEGEVLSVTAVHTYEAVVPKVTGNAFITGFHQFVVDPRDDLNRGFLLGLEHHHHHH” the value was “not soluble”. For “KGLAIAADYRNAYRVGGDYYDFIPSNYDRIRSQDDPKLVQCVPWSIVIGDVMGKGVPAGLIMTMTRGMLRAEVLNRHSPAKILEHLNRVMYADLDNSHRFVTLFYSEYDPKTRTLSYSNAAHHPPLLWRAQTQNIEPLDTQGMLIGLDLDSSYEDAKVVLEVGDIILYYTDGFTDAVNSHGDRFDEENLVRVFQNACQNCQTPEAIVQELFTQVEKFTYPKVRGGDDMTLVVVQVQSEAIESHLCQHHDC” the value was “not soluble”; for “MGSDKIHHHHHHMAAKKKSASSRKLNLGCGRDIREGWINLDSMALPGVDVVADLSLCATTPLPFEDSSIDEFLLSHLIEHIPDPLPLMQELWRIAKPGAKMQIRVPHGAHDDAWTNPTHVKPYFARSFGYFSQPWYWRADYGYRGDWQPELVTYSVPRRRFAGQMPAQILEQIDALRNVVQEMIVDLVAVKPLRQPKKDLMQAANIKIALME”, “not soluble”; for “MSLGQKVVAMLDFLLAYSDYSKDFRPLIIDQPEDNLDNRYIYRHLVQQFRDVKAQRQIILATHNATIVTNSMTDQVVIMESDGVNGWIESQGYVSEKYIKNHIINQLEGGKDSFKHKMSIYETALSEGHHHHHH”, “not soluble”. For “MGSDKIHHHHHHMDRVLFLAMTGAKHEAWQQATTANNLANVNTNAFKADLAAYRALPVVGDGAPTRTYVVDNTIGFDASQGSLQHTGNPSDFALGTPGFFAVQGADGQEAYTRDGGYVLDATGLMRTHSGLLIMGDGGPITVPAGSQVQLGSDGSVMAVPQSGANRAPQLVGQIKMVNPGPKDVYKGEDKLFHVNGGGTLPASADVKLVPETLESSNVNSVEALVQMISHGRQYELNIKMMQTSQQNDQQAAQLLSMS” the value was “not soluble”. As to “MEYSNFFDDLKSNIIGQYEECKAYRILCESQGYNPSEHLRSEKDITNIPFLATTLFKKSANLFLSLLRVEPDKLDKWTLSSSTSGDPSMVGRRNSDLMQIRKFVLMDDKFYDSASEYNCVFYPEPKVMREYKSVRIMDKPTESYIGNLLGIFDFSENTTFLLKSCGEGFSVDMNSFEEFLKFNNERNNHLSLRGSTLLLYNAVLELKKQGKGPYNLGSRAIVHTGGGGWDGKKGNISIGTKIERYQFVEEISEFLGIPQKNFRDTYSFTENTFPMDGHYSEKLRSYLFHVPTWGRVIIRDVKTLEPLNKPGDRGLVQVLNAYGTSSFAGASILVDDIAEIVANDSCPECKHEGMTFKIVGRVKGSEAKGCGATLDVRGKQKLEHHHHHH”, the “soluble on expression in E. coli” value is reported as “soluble”. For “EFSSEELIRMSNYLNELLVGVPVGQVRTRILEEMRNEKVLYDKLLARALQLSEQSLNDDGAQIFIEGQTNILEQPEFADSRRMRDLFRAFEEKNQLVGLLDRCLNAQGVQIFIGAETHLSQMEGLSIITSTYLTGKNTLGVLGVIGPTRMGYAKVIPIVDYTAKLVSRLLEG” the value was “not soluble”.

For the sequence “MGSDKIHHHHHHMASLTANIQTQEERKRSLPAQLVVSLVIAMSLWSKDSMRDVLKNLIDGLSEAWLKVGKYWRVACKSAITQARQRLGARVMCKLFHQLVKPMATQETLGAFLQELRIVVIDGSCFDVPDSDENARVFGRPGSRPGTKAAFPKVRLVILVEAGTHIIFDALMWPYRIGERVRALRLLRSVTPGMLLMWDRGLHSYAMVQATVTKGCDYLGRIPANIKFIAEKPLEDGSYLSWIYPSGKLRKKASQPILVRIIEYTIEHPDNPTEQLTYRLITSLLNIEKFPAELLAREYHQRWEVENTIDELKIHLLGRKTHVRSQKPREVVQEVYAWLLGHWTVRLLMFQAATSAGVAPLRLSFTGTLRVIRRAVPKFQRLNSQDLPLFLSG”, the “soluble on expression in E. coli” value was “not soluble”. For “MAQKKGRESDSVAEGLRPAEEGDVLELDECWTYVRERANKRWLWVALCRRTRQVVAFVIGDRSARTCARLWSRIPEEYRQGRSFSDFWKSYRPVFAGDPSHRQVGKSSGEMAHVERFFGRLRQKLARYVRRTRAASESERMLHLTTKLFVEWYNEAIT” the value was “not soluble”. For “RVEVGGSGDAAAVLGLGAVLQGQGQGTSPSPSGLRPQPEAALPPLERLPKPVLVQVASRCRRNDSRSPTHRKITRGAVGLFHPQLYLSGGNCIECGNEMMSRGKFERLAGTATAKWHVSIKVLPSGVTLGKWLQQHGLPILQGEPRQWRRPRCPCATSCAARCRRASNRRK” the value was “not soluble”; for “MGSDKIHHHHHHMTKTKNEKEEFIRVGTTLYKLVNQPRLNGGYVRKRIVWNNETLRQDYGKDYLATVPKYDGFCTVPNHVDYRPVVDKFLNLYEPIEHCPQQGEFPCIQSLVRHIFGEQYELGMDYLQLLYLQPVQKLPILLLVSEERNTGKSTFLNFLKALFQNNVTFNTNEDFRSQFNSDWAGKLLIVVDEVLLNRREDSERLKNLSTTLSYKVEAKGKDRDEIAFFAKFVLCSNNEYLPVIIDAGETRYWVRKIDRLQSDDTDFLQKLKAEIPAFLHFLQHRQLSTEKESRMWFAPSLLHTEALRKIIRSNRNRLEIEIHELILDIMDSVGTDTFSFCYNDLLLLLVHSQVKVEKYQVRKVLQECWKLTPASNGLTYTTYQFNYNRECRYEPIKRVGRFYTVTRKQLDSL”, “not soluble”. For “MSLRKMKRFYIASEEEIKTGKTTDIYFLRTRKILETKNIRKKVLADVTTTSLPENWKWGVLVGVEEVAKLLEGIPVNVYAMPEGTIFHPYEPVLQIEGDYADFGIYETALLGMLSQASGIATAALRIKIAAKFKPVYSFGIRHMHPAIAPMIDRAAFIGGCDGVSGVLGAEMMGEKAVGTMPHALIITVGDQVKAWKYFDEVIEKEVPRIALVDTFYDEKIEAVMAAEALGKKLSAVRLDTPSSRRGNFRRIIEEVKWELKIRGYDWVKILISGGLDEEKIKEIVDVADAFGVGSAIASAKPIDFALDIVEVEGKPIAKRGKLSGRKQVYRCENGHYHVVPADKKLERCPVCNAKVEPLLKPIIENGEIVVEFPKARDIREYVLEQAKKFNLEIEGHHHHHH” the value was “not soluble”; for “MMINIQEDKLVSAHDAEEILRFFNCHDSALQQEATTLLTQEAHLLDIQAYRAWLEHCVGSEVQYQVISRELRAASERRYKLNEAMNVYNENFQQLKVRVEHQLDPQNWGNSPKLRFTRFITNVQAAMDVNDKELLHIRSNVILHRARRGNQVDVFYAAREDKWKRGEGGVRKLVQRFVDYPERILQTHNLMVFL”, “soluble”; for “MAFRQPNTKELKVIRKALSYYGSGDFLSHYALLVKEGEKKEVYGVSKELYGVIGELNPHYAGVKIGEVGRRFRFSLEGTFWLLRNSRNRVWVNERGEMLFLYGRDIFAGSVERASEFGENSIVFVCNRFDDVLGIGRSRHSSDELSNLPEDKVFVENLVDRGEYLRHQKTYLSF”, “not soluble”.

Turning to “MAHHHHHHMEQFLNQVAASNKTVKCIKGALQIYDTYGEVFSLVHERRYEEAGIICTHFSDHIGQLFLGTTDGNCLVYYHDERSGDEQRSGVEERSGDDLYGDADRCGVPPVGRKKKGGVLEYLHKGVKRKRERASFYTNSEHIYNLDSLPKEIKITDAGDVLIKKDLINAKVKMNPKLSSFTANAYEKKRQVGMYSKYIVDANPSGKDPSSSQTNKGNEYEEEDIVEKLRKREQSKQGGDYFMNAYKYTQPSAIIDYSSGEEQEYSQLLKKPKCPQCGVKNCVCGFMRSGGRRAR”, the “soluble on expression in E. coli” value was “not soluble”. For “MSLTYDLLITDSHVITPKGMVEKNIVVENGKIELITNDSPDCDKKINGSGLVSIPGLIDPHVHYGVYSPIDQAAISESHAAAIGGVTTMIRMFRLKGSYKESLNKHLLASQNSHYIDYTLHASIFDDSQISEMQYCAENKIISFKIYMNLGGDVGHVYMEMNPGEEKLIAAEVNVTNELVEKIVKNAASLKCPVLVHAEDYQECSCGMKTEKEKNHDGLNAWSESRSPNFEAKSIQIICEYGRKYDCQIYFVHIGSKLALDKIKEEKKKGTKIFVETCPHYLTLSHETQTGYLAKVMPPIRTNNDVQSVWNALQNNEIDTIGTDHVANQLKLKLGGDDVWGALAGFPGIGTSLPILLSEGINKNRINLNQLANLTSTNSAKIFGLSGKGSLEKGYDADITMIDLKKEEKVSPELFGGFSDYLVYDGWNLKGWPVKTIVRGTVVAEDFEVIGKPGYGNFVPRKLSEGHHHHHH” the value was “not soluble”.
